Experimental data reported in patent publication US6028055A, “Receptor selective BNP” (Genetech, Inc., priority 1997, dated 2000).
Where no end group is shown, it is not given here.

Assays:
[1] = molecular target: NPR-A IgG fusion (A-IgG) (Homo sapiens, UniProt P16066); assay: Phage ELISA measurement of phagemid affinities for NPR-A (A-IgG); settings: ratio of mutant BNP phagemid binding affinity (EC50) to ANP phagemid binding to A-IgG; clones after 7 rounds of selection
Description: ELISA measurement of phagemic affinities for NPR-A and NPR-C: Phage ELISA were determined according to the method of Cunningham, B. C. et al., (1994) EMBO J., 13:2508-2515. Microtiter plates (Nunc, Maxisorb, 96 wells) were coated with purified A-IgG (at 1 μg/ml) in 50 mM sodium bicarbonate (pH 9.6) at 4 C overnight. The plates were blocked with 5% skimmed milk and washed with PBS, 0.01% TWEEN 20. Serial dilutions of competing receptor (A-IgG or C-IgG) and a subsaturating concentration of BNP-phagemid were added to wells in 100 μl of binding buffer (2% skim milk in PBS). After 2 h the plates were washed, and the bound phagemid stained with sheep anti-M13 HRP conjugate antibody (Pharmacia #279402-01),and assayed.
The amino acid residues found at each randomized position after 7 rounds of selection are shown in Table I. 8 segments of 3 to 5 amino acids randomized by primer mutagenisis are indicated at the top of the figure, immediately above the numbering for 32 amino acid human BNP, the sequence of which is shown in single letter amino acid code. Cysteine residues 10 and 26 were not mutagenized since they form a disulfide bond essential for binding to NPR-A. The substitution of K3 for D (Display BNP) is analogous to the acidic substitution R3D in ANP used to facilitate secretion expression in E. coli (Cunningham et al. (1994)). Individual clones were picked and the DNA sequence was determined. The number of times a particular sequence was observed is shown on the left. The ratio of mutant BNP phagemid binding affinity to ANP phagemid binding to A-IgG is shown on the right. Mutations that occur outside of the mutagenesis window result from polymerase misincorporation mutations that render a selection advantage to the mutant BNP phagemid (Cunningham et al. (1994)).

[2] = molecular target: T1, NPR-C (Homo sapiens, UniProt P17342); assay: Measurement of binding affinities for NPR-C, membranes from stable 293 cell lines, 125I rat ANP displacement; set-up: unit not given here; settings: pure synthetic peptide vs 30 pM 125I rat ANP, 2 hours room temperature; duplicate points, three separate assays
T1 construct: expressed in transfected cells
T1 sequence (P17342 27-541): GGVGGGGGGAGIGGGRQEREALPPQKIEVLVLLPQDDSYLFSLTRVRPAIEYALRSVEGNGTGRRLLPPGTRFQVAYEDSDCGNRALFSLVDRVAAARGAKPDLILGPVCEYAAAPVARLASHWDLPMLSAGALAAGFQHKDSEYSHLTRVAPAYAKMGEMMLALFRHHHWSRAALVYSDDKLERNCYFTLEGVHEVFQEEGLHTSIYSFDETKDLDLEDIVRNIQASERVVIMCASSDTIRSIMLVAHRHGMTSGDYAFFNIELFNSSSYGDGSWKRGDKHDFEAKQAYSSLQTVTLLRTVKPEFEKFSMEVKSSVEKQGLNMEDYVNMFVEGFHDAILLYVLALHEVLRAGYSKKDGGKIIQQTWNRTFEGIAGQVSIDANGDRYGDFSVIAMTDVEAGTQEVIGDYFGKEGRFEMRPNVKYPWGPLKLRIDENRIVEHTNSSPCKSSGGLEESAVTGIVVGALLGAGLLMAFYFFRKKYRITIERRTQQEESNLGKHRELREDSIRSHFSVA
Description: Membrane Preparation Membranes from stable 293 cell lines expressing NPR-A (Lowe and Fendly (1992) J. Biol. Chem.) or NPR-C (Cunningham et al. (1994) supra) were prepared by removing the cells from tissue culture plates with 0.5MM EDTA in PBS, centrifuging at 225×g, 4° C., and resuspending in 50 mM Hepes Ph7.4, 1 mM EDTA, 1 mM DTT, 250 mM Sucrose, 0.7 μg/ml Pepstatin A, 0.5 μg/ml Leupeptin, 1 mM PMSF, 1 μM Phosphoramidon. The resuspended cells were homogenized for 30 seconds with a Brinkman polytron on setting 5. The homogenate was centrifuged in 30 ml corex tubes in Sorval HB-4 rotor at 400×(1500 rpm) for 10 minutes at 4° C. The supernatant was centrifuged again in screw cap polycarbonate tubes (Beckman 355618) at 100,000×g (31,500 rpm) for 30 minutes, 4° C. in a Beckman TI60 rotor. The pellet was resuspended in 50 mM Hepes, 0.1 mM EDTA, 5.0 mM MgCl2, 100 mM NaCl, 0.7μg/ml Pepstatin A, 0.5 μg/ml Leupeptin, 1 mM PMSF, 1 μM Phosphoramidon and homogenized again with 15 strokes in a Dounce homogenizer (Wheaton 7 ml, #357542). The membranes were passed through a 22 gauge needle several times before aliquoting into eppendorf tubes for storage at -80° C.
The binding was allowed to go for 2 hours at room temperature in 96 well U-bottomed microtiter polypropylene plates (Sigma M-4029) with gentle agitation. The bound hormone was separated from the free using a Packard Filtermate 196 cell harvester and 1% polyethyleneimine-saturated Packard unifilter-96 GF/B plates by vacuum filtration. The plates were dried under vacuum chamber for 10 minutes prior to adding 40 μl Microscint-20 scintillant and counting in a Packard Topcount scintillation counter. Each affinity represents points measured in duplicate within three separate assays.

Sequence of NPR-A IgG fusion (A-IgG) (P16066 with tags, fused parts or gaps limits assumed): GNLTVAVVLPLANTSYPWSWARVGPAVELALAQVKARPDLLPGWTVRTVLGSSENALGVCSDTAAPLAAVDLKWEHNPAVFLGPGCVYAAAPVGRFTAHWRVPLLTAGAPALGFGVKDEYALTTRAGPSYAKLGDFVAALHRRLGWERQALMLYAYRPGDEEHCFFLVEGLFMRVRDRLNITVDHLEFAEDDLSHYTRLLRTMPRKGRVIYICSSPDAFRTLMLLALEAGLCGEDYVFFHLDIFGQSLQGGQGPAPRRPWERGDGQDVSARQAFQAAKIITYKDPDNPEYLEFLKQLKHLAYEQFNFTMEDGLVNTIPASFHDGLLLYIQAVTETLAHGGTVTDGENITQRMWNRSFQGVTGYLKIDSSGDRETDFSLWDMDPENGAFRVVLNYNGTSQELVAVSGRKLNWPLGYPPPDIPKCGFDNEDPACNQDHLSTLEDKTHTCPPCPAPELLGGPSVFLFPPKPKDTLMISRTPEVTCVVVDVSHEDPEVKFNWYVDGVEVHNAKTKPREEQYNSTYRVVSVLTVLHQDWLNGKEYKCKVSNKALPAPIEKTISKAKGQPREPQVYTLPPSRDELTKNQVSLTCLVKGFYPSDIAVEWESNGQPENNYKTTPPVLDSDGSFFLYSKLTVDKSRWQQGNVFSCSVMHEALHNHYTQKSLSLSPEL

Row | Substance | Binding to NPR-A ratio of mutant/hANP [1] | NPR-C binding affinity (Assay #1) [2]
1 | hBNP Gly23Leu, Leu24Trp, Gly25Arg (SPKMVQGSGCFGRKMERISSSSLWRCKVLRRH; ends and bridges not checked; cysteine pairing not given here) [L W R, measured as BNP-phagemid clone (Display BNP, K3D)] | 2.0 | –
2 | hBNP Arg13Gly, Lys14Arg, Ser19Arg (SPKMVQGSGCFGGRMDRIRSSSGLGCKVLRRH) | – | 28,370 ± 9,654
3 | hBNP Lys14Asn, Ser19Arg, Ser20Gly, Ser21Met (SPKMVQGSGCFGRNMERIRGMSGLGCKVLRRH; ends and bridges not checked; cysteine pairing not given here) [N R G M, measured as BNP-phagemid clone (Display BNP, K3D)] | 2.9 | –
4 | hBNP Lys14Asn, Ser19Arg, Ser20His, Ser21Leu (SPKMVQGSGCFGRNMERIRHLSGLGCKVLRRH; ends and bridges not checked; cysteine pairing not given here) [N R H L, measured as BNP-phagemid clone (Display BNP, K3D)] | 1.0 | –
5 | hBNP Lys14Asn, Ser19Arg, Ser20Asn, Ser21Thr (SPKMVQGSGCFGRNMERIRNTSGLGCKVLRRH; ends and bridges not checked; cysteine pairing not given here) [N R N T, measured as BNP-phagemid clone (Display BNP, K3D)] | 8.7 | –
6 | hANP Gly16Arg [reference compound] | – | 10,601 ± 1271
7 | hBNP Gly23Met, Leu24Tyr, Gly25Arg (SPKMVQGSGCFGRKMERISSSSMYRCKVLRRH; ends and bridges not checked; cysteine pairing not given here) [M Y R, measured as BNP-phagemid clone (Display BNP, K3D)] | 2.4 | –
8 | hBNP Lys14Asn, Ser19Ala, Ser20Arg, Ser21Glu (SPKMVQGSGCFGRNMERIARESGLGCKVLRRH; ends and bridges not checked; cysteine pairing not given here) [N A R E, measured as BNP-phagemid clone (Display BNP, K3D)] | 1.3 | –
9 | hBNP Lys14Asn, Ser19Arg (SPKMVQGSGCFGRNMERIRSSSGLGCKVLRRH; ends and bridges not checked; cysteine pairing not given here) [N R, measured as BNP-phagemid clone (Display BNP, K3D)] | 3.5 | –
10 | hBNP Lys14Asn, Ser19Gly, Ser20His, Ser21Leu (SPKMVQGSGCFGRNMERIGHLSGLGCKVLRRH; displayed on phagemid) [N G H L, measured as BNP-phagemid clone (Display BNP, K3D)] | 14.8 | –
11 | hBNP Lys14Asn, Ser19Gly, Ser20Gly, Ser21Leu (SPKMVQGSGCFGRNMERIGGLSGLGCKVLRRH; ends and bridges not checked; cysteine pairing not given here) [N G G L, measured as BNP-phagemid clone (Display BNP, K3D)] | 3.9 | –
12 | G R R: BNP-phagemid clone of Table I (Display BNP, K3D); substitutions seem those of hBNP Arg13Gly, Lys14Arg, Ser19Arg | 1.6 | –
13 | hBNP Lys14Asn, Ser19Gly, Ser20Arg, Ser21Ala (SPKMVQGSGCFGRNMERIGRASGLGCKVLRRH; ends and bridges not checked; cysteine pairing not given here) [N G R A, measured as BNP-phagemid clone (Display BNP, K3D)] | 4.8 | –
14 | hBNP Lys14Asn, Ser19Arg, Ser20Lys, Ser21Thr (SPKMVQGSGCFGRNMERIRKTSGLGCKVLRRH; ends and bridges not checked; cysteine pairing not given here) [N N K T, measured as BNP-phagemid clone (Display BNP, K3D)] | 4.2 | –
15 | hBNP Gly23Met, Leu24Phe, Gly25Arg (SPKMVQGSGCFGRKMERISSSSMFRCKVLRRH; ends and bridges not checked; cysteine pairing not given here) [M F R, measured as BNP-phagemid clone (Display BNP, K3D)] | 3.0 | –
16 | F W R: BNP-phagemid clone of Table I (Display BNP, K3D); substitutions as in hBNP Gly23Phe, Leu24Trp, Gly25Arg (SEQ ID NO:2) (SPKMVQGSGCFGRKMERISSSSFWRCKVLRRH; ends and bridges not checked; cysteine pairing not given here) | 0.8 | –
17 | hBNP Lys14Thr, Ser19Arg, Ser20His, Ser21Gly, Ser22Gly (SPKMVQGSGCFGRTMERIRHGGGLGCKVLRRH; displayed on phagemid) [T R H G H, measured as BNP-phagemid clone (Display BNP, K3D)] | 5.0 | –
18 | hBNP Lys14Asn, Ser19Arg, Ser21Trp [N R S W] | 4.4 | –
19 | hBNP Lys14Asn, Ser19Arg, Ser20Gly (SPKMVQGSGCFGRNMERIRGSSGLGCKVLRRH; ends and bridges not checked; cysteine pairing not given here) [N R G, measured as BNP-phagemid clone (Display BNP, K3D)] | 3.9 | –
20 | hBNP Lys14Gln, Ser19Arg, Ser20His, Ser22Thr (SPKMVQGSGCFGRQMERIRHSTGLGCKVLRRH; displayed on phagemid) [Q R H S T, measured as BNP-phagemid clone (Display BNP, K3D)] | 4.0 | –
21 | hBNP Lys14Asn, Ser19Arg, Ser20Thr, Ser21Lys (SPKMVQGSGCFGRNMERIRTKSGLGCKVLRRH; ends and bridges not checked; cysteine pairing not given here) [N R T K, measured as BNP-phagemid clone (Display BNP, K3D)] | 4.4 | –
22 | hBNP Gly23Met, Leu24Trp, Gly25Arg [M W R] | 1.0 | –
